Assay results: PMC9482650, “Quantitative fragmentomics allow affinity mapping of interactomes” (Nature Communications, 2022)

T1: APBA2_1, Q99767
T1 sequence (Q99767 563-664, limits assumed, looked up): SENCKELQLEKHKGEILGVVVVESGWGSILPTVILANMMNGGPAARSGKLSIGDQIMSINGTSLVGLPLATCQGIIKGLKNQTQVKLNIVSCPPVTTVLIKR

T2: APBA3_1, O96018
T2 sequence (O96018 389-490, limits assumed, looked up): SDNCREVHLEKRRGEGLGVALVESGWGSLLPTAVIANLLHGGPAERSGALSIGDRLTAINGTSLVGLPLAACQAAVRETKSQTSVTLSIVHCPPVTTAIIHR

T3: DFNB31_2, Q9P202
T3 sequence (Q9P202 274-371, limits assumed, looked up): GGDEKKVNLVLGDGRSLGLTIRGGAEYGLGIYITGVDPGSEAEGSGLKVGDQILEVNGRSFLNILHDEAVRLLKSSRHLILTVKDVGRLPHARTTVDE

T4: DVL3, Q92997
T4 sequence (Q92997 244-331, limits assumed, looked up): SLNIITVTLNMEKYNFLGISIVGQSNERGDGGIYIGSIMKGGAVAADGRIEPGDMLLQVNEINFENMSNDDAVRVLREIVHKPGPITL

T5: HTRA3, P83110
T5 sequence (P83110 354-453, limits assumed, looked up): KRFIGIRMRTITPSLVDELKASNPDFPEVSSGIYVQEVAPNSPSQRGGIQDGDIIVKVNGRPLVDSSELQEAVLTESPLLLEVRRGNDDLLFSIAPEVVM

T6: NHERF3_3, Q5T2W1
T6 sequence (Q5T2W1 238-333, limits assumed, looked up): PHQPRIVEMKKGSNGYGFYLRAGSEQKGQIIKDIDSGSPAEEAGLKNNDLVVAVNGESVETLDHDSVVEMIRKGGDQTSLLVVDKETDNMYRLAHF

T7: PARD3B_1, Q8TEW8
T7 sequence (Q8TEW8 196-299, limits assumed, looked up): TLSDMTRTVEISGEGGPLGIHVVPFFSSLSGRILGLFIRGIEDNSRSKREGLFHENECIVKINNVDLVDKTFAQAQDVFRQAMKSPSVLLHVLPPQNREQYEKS

T8: PDZD7_3, Q9H5P4
T8 sequence (Q9H5P4 857-944, limits assumed, looked up): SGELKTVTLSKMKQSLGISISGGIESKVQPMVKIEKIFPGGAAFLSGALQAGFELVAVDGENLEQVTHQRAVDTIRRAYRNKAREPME

T9: SIPA1L2, Q9P2F8
T9 sequence (Q9P2F8 945-1036, limits assumed, looked up): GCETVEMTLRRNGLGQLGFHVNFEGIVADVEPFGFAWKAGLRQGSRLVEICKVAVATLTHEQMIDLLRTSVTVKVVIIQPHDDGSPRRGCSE

T10: SNTA1, Q13424
T10 sequence (Q13424 82-180, limits assumed, looked up): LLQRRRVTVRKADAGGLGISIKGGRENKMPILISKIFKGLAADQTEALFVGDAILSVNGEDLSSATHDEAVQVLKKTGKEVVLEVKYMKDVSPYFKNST

T11: SNTG1, Q9NSN8
T11 sequence (Q9NSN8 52-150, limits assumed, looked up): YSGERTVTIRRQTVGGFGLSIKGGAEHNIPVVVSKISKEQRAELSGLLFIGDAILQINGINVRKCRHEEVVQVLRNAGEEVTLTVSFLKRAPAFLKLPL

T12: TJP3_3, O95049
T12 sequence (O95049 375-456, limits assumed, looked up): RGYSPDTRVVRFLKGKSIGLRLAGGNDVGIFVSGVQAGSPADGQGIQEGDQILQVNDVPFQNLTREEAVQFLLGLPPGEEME


The binders below were run against T1, APBA2_1, Q99767 (assay: holdup assay). Conditions: plain residues with an end cap or a label only (N-terminal biotin on a linker: ado-ado).
Design: key: below the threshold = too weak to quantify, mostly under pKd 3.1 to 4
HSGYRLNDYV [CLDN14, O95500] was tested, and the pKd was “below the threshold”. In the case of TACCHSETVV [TGFA, P01135], the pKd is reported as “below the threshold”.

These binders were tested against T2, APBA3_1, O96018 (assay: holdup assay). Conditions: plain residues with an end cap or a label only (N-terminal biotin on a linker: ado-ado).
Design: key: below the threshold = too weak to quantify, mostly under pKd 3.1 to 4
In the case of HSGYRLNDYV [CLDN14, O95500], the pKd is reported as “below the threshold”. In the case of TACCHSETVV [TGFA, P01135], the pKd is reported as “below the threshold”.

The binders below were run against ARHGEF12, Q9NZN5-2 (assay: holdup assay). Conditions: plain residues with an end cap or a label only (N-terminal biotin on a linker: ado-ado).
Sequence of ARHGEF12, Q9NZN5-2 (Q9NZN5 other isoform, or with tags, fused parts or gaps): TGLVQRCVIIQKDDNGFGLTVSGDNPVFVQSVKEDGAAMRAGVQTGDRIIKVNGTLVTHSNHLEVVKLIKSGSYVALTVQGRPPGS
Design: key: below the threshold = too weak to quantify, mostly under pKd 3.1 to 4
HSGYRLNDYV [CLDN14, O95500] was tested, and the pKd was “below the threshold”. With TACCHSETVV [TGFA, P01135] the pKd was 3.56.

These binders were tested against CASK, O14936 (assay: holdup assay). Conditions: plain residues with an end cap or a label only (N-terminal biotin on a linker: ado-ado).
Sequence of CASK, O14936 (O14936 487-570): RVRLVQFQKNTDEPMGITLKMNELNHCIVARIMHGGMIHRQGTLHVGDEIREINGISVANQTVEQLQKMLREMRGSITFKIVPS
Design: key: below the threshold = too weak to quantify, mostly under pKd 3.1 to 4
HSGYRLNDYV [CLDN14, O95500] was tested, and the pKd was “below the threshold”. For TACCHSETVV [TGFA, P01135], the pKd was “below the threshold”.

These binders were tested against T3, DFNB31_2, Q9P202 (assay: holdup assay). Conditions: plain residues with an end cap or a label only (N-terminal biotin on a linker: ado-ado).
Design: key: below the threshold = too weak to quantify, mostly under pKd 3.1 to 4
For HSGYRLNDYV [CLDN14, O95500], the pKd was “below the threshold”. With TACCHSETVV [TGFA, P01135] the pKd was “below the threshold”.

The binders below were run against DLG2_2, Q15700 (assay: holdup assay). Conditions: plain residues with an end cap or a label only (N-terminal biotin on a linker: ado-ado).
Sequence of DLG2_2, Q15700 (Q15700 189-283): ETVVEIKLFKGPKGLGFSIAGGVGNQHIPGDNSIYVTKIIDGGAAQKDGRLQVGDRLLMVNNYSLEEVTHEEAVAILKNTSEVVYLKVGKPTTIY
Design: key: below the threshold = too weak to quantify, mostly under pKd 3.1 to 4
For HSGYRLNDYV [CLDN14, O95500], the pKd was “below the threshold”. TACCHSETVV [TGFA, P01135] gave a pKd of 4.76.

These binders were tested against T4, DVL3, Q92997 (assay: holdup assay). Conditions: plain residues with an end cap or a label only (N-terminal biotin on a linker: ado-ado).
Design: key: below the threshold = too weak to quantify, mostly under pKd 3.1 to 4
For HSGYRLNDYV [CLDN14, O95500], the pKd was 3.66. For TACCHSETVV [TGFA, P01135], the pKd was “below the threshold”.

What follows are binders tested against GORASP1, Q9BQQ3 (assay: holdup assay). Conditions: plain residues with an end cap or a label only (N-terminal biotin on a linker: ado-ado).
Sequence of GORASP1, Q9BQQ3 (Q9BQQ3 1-208): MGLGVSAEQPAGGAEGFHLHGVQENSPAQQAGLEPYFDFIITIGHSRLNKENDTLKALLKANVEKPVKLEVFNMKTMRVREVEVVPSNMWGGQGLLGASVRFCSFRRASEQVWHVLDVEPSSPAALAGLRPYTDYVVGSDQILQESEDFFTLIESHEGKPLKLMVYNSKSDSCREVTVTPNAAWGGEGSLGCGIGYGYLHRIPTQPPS
Design: key: below the threshold = too weak to quantify, mostly under pKd 3.1 to 4
With HSGYRLNDYV [CLDN14, O95500] the pKd was 3.75. For TACCHSETVV [TGFA, P01135], the pKd was 3.67.

What follows are binders tested against GRIP2_3, Q9C0E4 (assay: holdup assay). Conditions: plain residues with an end cap or a label only (N-terminal biotin on a linker: ado-ado).
Sequence of GRIP2_3, Q9C0E4 (Q9C0E4 238-339): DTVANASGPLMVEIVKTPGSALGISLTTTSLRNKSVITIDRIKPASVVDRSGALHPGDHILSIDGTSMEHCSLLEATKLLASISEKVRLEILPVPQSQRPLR
Design: key: below the threshold = too weak to quantify, mostly under pKd 3.1 to 4
HSGYRLNDYV [CLDN14, O95500] was tested, and the pKd was “below the threshold”. In the case of TACCHSETVV [TGFA, P01135], the pKd is reported as “below the threshold”.

What follows are binders tested against GRIP2_7, Q9C0E4 (assay: holdup assay). Conditions: plain residues with an end cap or a label only (N-terminal biotin on a linker: ado-ado).
Sequence of GRIP2_7, Q9C0E4 (Q9C0E4 934-1023): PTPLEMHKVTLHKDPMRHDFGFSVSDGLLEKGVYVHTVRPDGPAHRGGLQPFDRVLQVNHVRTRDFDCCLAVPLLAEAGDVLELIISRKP
Design: key: below the threshold = too weak to quantify, mostly under pKd 3.1 to 4
With HSGYRLNDYV [CLDN14, O95500] the pKd was “below the threshold”. In the case of TACCHSETVV [TGFA, P01135], the pKd is reported as “below the threshold”.

What follows are binders tested against T5, HTRA3, P83110 (assay: holdup assay). Conditions: plain residues with an end cap or a label only (N-terminal biotin on a linker: ado-ado).
Design: key: below the threshold = too weak to quantify, mostly under pKd 3.1 to 4
HSGYRLNDYV [CLDN14, O95500] gave a pKd of 4.55. In the case of TACCHSETVV [TGFA, P01135], the pKd is reported as “below the threshold”.

What follows are binders tested against LIMK2, P53671 (assay: holdup assay). Conditions: plain residues with an end cap or a label only (N-terminal biotin on a linker: ado-ado).
Sequence of LIMK2, P53671 (P53671 143-248): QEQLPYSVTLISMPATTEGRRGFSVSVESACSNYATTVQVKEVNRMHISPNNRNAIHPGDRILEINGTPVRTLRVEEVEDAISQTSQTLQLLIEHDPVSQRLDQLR
Design: key: below the threshold = too weak to quantify, mostly under pKd 3.1 to 4
With HSGYRLNDYV [CLDN14, O95500] the pKd was “below the threshold”. TACCHSETVV [TGFA, P01135] was tested, and the pKd was “below the threshold”.

Each binder was assayed against MAGI1_2, Q96QZ7 (assay: holdup assay). Conditions: plain residues with an end cap or a label only (N-terminal biotin on a linker: ado-ado).
Sequence of MAGI1_2, Q96QZ7 (Q96QZ7 456-580): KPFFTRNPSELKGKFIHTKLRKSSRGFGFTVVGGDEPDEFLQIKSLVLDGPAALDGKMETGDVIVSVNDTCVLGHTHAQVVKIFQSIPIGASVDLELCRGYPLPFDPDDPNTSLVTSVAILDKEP
Design: key: below the threshold = too weak to quantify, mostly under pKd 3.1 to 4
For HSGYRLNDYV [CLDN14, O95500], the pKd was “below the threshold”. In the case of TACCHSETVV [TGFA, P01135], the pKd is reported as 4.24.

The binders below were run against T6, NHERF3_3, Q5T2W1 (assay: holdup assay). Conditions: plain residues with an end cap or a label only (N-terminal biotin on a linker: ado-ado).
Design: key: below the threshold = too weak to quantify, mostly under pKd 3.1 to 4
For HSGYRLNDYV [CLDN14, O95500], the pKd was “below the threshold”. With TACCHSETVV [TGFA, P01135] the pKd was “below the threshold”.

Each binder was assayed against NHERF4_2, Q86UT5 (assay: holdup assay). Conditions: plain residues with an end cap or a label only (N-terminal biotin on a linker: ado-ado).
Sequence of NHERF4_2, Q86UT5 (Q86UT5 220-308): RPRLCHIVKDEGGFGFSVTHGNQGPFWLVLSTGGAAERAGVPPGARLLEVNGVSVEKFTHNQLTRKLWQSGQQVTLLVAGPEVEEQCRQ
Design: key: below the threshold = too weak to quantify, mostly under pKd 3.1 to 4
In the case of HSGYRLNDYV [CLDN14, O95500], the pKd is reported as “below the threshold”. In the case of TACCHSETVV [TGFA, P01135], the pKd is reported as “below the threshold”.

Each binder was assayed against T7, PARD3B_1, Q8TEW8 (assay: holdup assay). Conditions: plain residues with an end cap or a label only (N-terminal biotin on a linker: ado-ado).
Design: key: below the threshold = too weak to quantify, mostly under pKd 3.1 to 4
With HSGYRLNDYV [CLDN14, O95500] the pKd was “below the threshold”. In the case of TACCHSETVV [TGFA, P01135], the pKd is reported as “below the threshold”.

Each binder was assayed against PARD3_3, Q8TEW0 (assay: holdup assay). Conditions: plain residues with an end cap or a label only (N-terminal biotin on a linker: ado-ado).
Sequence of PARD3_3, Q8TEW0 (Q8TEW0 582-685): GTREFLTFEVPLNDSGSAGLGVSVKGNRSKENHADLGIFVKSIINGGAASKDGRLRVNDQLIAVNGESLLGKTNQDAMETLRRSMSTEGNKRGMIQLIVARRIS
Design: key: below the threshold = too weak to quantify, mostly under pKd 3.1 to 4
Binder HSGYRLNDYV [CLDN14, O95500] has a pKd of 3.83. Binder TACCHSETVV [TGFA, P01135] has a pKd of 3.85.

Each binder was assayed against T8, PDZD7_3, Q9H5P4 (assay: holdup assay). Conditions: plain residues with an end cap or a label only (N-terminal biotin on a linker: ado-ado).
Design: key: below the threshold = too weak to quantify, mostly under pKd 3.1 to 4
With HSGYRLNDYV [CLDN14, O95500] the pKd was 4.19. With TACCHSETVV [TGFA, P01135] the pKd was 5.04.

These binders were tested against SCRIB_1, Q14160 (assay: holdup assay). Conditions: plain residues with an end cap or a label only (N-terminal biotin on a linker: ado-ado).
Sequence of SCRIB_1, Q14160 (Q14160 718-814): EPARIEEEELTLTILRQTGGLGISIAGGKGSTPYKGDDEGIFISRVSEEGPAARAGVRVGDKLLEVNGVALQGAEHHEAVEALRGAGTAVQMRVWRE
Design: key: below the threshold = too weak to quantify, mostly under pKd 3.1 to 4
In the case of HSGYRLNDYV [CLDN14, O95500], the pKd is reported as “below the threshold”. Work on TACCHSETVV [TGFA, P01135] yielded a pKd of 4.3.

Each binder was assayed against SCRIB_3, Q14160 (assay: holdup assay). Conditions: plain residues with an end cap or a label only (N-terminal biotin on a linker: ado-ado).
Sequence of SCRIB_3, Q14160 (Q14160 999-1103): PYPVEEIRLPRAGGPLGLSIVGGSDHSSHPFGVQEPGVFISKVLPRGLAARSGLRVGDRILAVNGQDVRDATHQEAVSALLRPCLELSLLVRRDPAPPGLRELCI
Design: key: below the threshold = too weak to quantify, mostly under pKd 3.1 to 4
HSGYRLNDYV [CLDN14, O95500] was tested, and the pKd was “below the threshold”. Work on TACCHSETVV [TGFA, P01135] yielded a pKd of 4.14.

What follows are binders tested against T9, SIPA1L2, Q9P2F8 (assay: holdup assay). Conditions: plain residues with an end cap or a label only (N-terminal biotin on a linker: ado-ado).
Design: key: below the threshold = too weak to quantify, mostly under pKd 3.1 to 4
For HSGYRLNDYV [CLDN14, O95500], the pKd was “below the threshold”. TACCHSETVV [TGFA, P01135] was tested, and the pKd was “below the threshold”.

These binders were tested against T10, SNTA1, Q13424 (assay: holdup assay). Conditions: plain residues with an end cap or a label only (N-terminal biotin on a linker: ado-ado).
Design: key: below the threshold = too weak to quantify, mostly under pKd 3.1 to 4
For HSGYRLNDYV [CLDN14, O95500], the pKd was “below the threshold”. In the case of TACCHSETVV [TGFA, P01135], the pKd is reported as 5.04.

What follows are binders tested against T11, SNTG1, Q9NSN8 (assay: holdup assay). Conditions: plain residues with an end cap or a label only (N-terminal biotin on a linker: ado-ado).
Design: key: below the threshold = too weak to quantify, mostly under pKd 3.1 to 4
For HSGYRLNDYV [CLDN14, O95500], the pKd was “below the threshold”. In the case of TACCHSETVV [TGFA, P01135], the pKd is reported as 4.43.

The binders below were run against TJP1_2, Q07157 (assay: holdup assay). Conditions: plain residues with an end cap or a label only (N-terminal biotin on a linker: ado-ado).
Sequence of TJP1_2, Q07157 (Q07157 181-274): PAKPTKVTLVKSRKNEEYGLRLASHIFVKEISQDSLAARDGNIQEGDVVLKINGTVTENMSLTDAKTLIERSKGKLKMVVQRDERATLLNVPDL
Design: key: below the threshold = too weak to quantify, mostly under pKd 3.1 to 4
HSGYRLNDYV [CLDN14, O95500] was tested, and the pKd was “below the threshold”. For TACCHSETVV [TGFA, P01135], the pKd was “below the threshold”.

These binders were tested against TJP2_1, Q9UDY2 (assay: holdup assay). Conditions: plain residues with an end cap or a label only (N-terminal biotin on a linker: ado-ado).
Sequence of TJP2_1, Q9UDY2 (Q9UDY2 24-128): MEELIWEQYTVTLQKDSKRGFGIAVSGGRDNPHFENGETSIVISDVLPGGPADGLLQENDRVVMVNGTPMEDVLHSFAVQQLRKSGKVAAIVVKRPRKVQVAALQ
Design: key: below the threshold = too weak to quantify, mostly under pKd 3.1 to 4
HSGYRLNDYV [CLDN14, O95500] gave a pKd of 4.72. In the case of TACCHSETVV [TGFA, P01135], the pKd is reported as “below the threshold”.

Each binder was assayed against T12, TJP3_3, O95049 (assay: holdup assay). Conditions: plain residues with an end cap or a label only (N-terminal biotin on a linker: ado-ado).
Design: key: below the threshold = too weak to quantify, mostly under pKd 3.1 to 4
In the case of HSGYRLNDYV [CLDN14, O95500], the pKd is reported as 4.28. With TACCHSETVV [TGFA, P01135] the pKd was “below the threshold”.
